Measurements reported in publication doi:10.1101/2023.02.08.527602 (bioRxiv, 2023).

Molecular target: Soluble SorCS2 (extracellular domain of SorCS2) (UniProt Q96PQ0 51-1078)
Experiment: SPR

Soluble SorCS2 (extracellular domain of SorCS2), sequence (Q96PQ0 51-1078): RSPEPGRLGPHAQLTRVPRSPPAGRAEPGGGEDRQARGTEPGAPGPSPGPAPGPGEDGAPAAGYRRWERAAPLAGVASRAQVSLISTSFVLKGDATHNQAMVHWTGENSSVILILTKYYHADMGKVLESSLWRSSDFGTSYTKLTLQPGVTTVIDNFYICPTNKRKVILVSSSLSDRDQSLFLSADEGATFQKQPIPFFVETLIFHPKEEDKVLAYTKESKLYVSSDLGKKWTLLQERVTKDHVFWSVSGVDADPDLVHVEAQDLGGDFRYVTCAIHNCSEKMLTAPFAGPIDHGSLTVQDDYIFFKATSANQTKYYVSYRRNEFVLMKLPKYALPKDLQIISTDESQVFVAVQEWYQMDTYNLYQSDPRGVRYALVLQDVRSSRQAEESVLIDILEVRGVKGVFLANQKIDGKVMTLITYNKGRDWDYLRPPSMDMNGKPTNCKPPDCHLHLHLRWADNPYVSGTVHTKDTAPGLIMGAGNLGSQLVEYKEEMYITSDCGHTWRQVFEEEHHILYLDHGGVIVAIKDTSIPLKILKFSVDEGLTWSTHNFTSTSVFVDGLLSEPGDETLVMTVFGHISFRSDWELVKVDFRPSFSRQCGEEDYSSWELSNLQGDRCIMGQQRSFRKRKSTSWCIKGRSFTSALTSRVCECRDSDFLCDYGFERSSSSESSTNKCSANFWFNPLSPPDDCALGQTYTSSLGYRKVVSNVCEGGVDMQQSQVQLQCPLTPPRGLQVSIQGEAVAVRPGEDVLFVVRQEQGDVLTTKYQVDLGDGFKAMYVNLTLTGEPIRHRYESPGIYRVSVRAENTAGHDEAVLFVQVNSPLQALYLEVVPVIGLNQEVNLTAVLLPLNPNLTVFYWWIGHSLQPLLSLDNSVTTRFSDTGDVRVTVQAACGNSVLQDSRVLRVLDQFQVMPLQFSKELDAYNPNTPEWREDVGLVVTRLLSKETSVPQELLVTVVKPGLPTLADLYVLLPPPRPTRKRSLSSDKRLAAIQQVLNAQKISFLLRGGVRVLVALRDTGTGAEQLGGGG

B1: human progranulin (hPGRN) used in SPR (ligand, UniProt P28799 18-593, looked up)
chain: TRCPDGQFCPVACCLDPGGASYSCCRPLLDKWPTTLSRHLGGPCQVDAHCSAGHSCIFTVSGTSSCCPFPEAVACGDGHHCCPRGFHCSADGRSCFQRSGNNSVGAIQCPDSQFECPDFSTCCVMVDGSWGCCPMPQASCCEDRVHCCPHGAFCDLVHTRCITPTGTHPLAKKLPAQRTNRAVALSSSVMCPDARSRCPDGSTCCELPSGKYGCCPMPNATCCSDHLHCCPQDTVCDLIQSKCLSKENATTDLLTKLPAHTVGDVKCDMEVSCPDGYTCCRLQSGAWGCCPFTQAVCCEDHIHCCPAGFTCDTQKGTCEQGPHQVPWMEKAPAHLSLPDPQALKRDVPCDNVSSCPSSDTCCQLTSGEWGCCPIPEAVCCSDHQHCCPQGYTCVAEGQCQRGSEIVAGLEKMPARRASLSHPRDIGCDQHTSCPVGQTCCPSLGGSWACCQLPHAVCCEDRQHCCPAGYTCNVKARSCEKEVVSAQPATFLARSPHVGVKDVECGEGHFCHDNQTCCRDNRQGWACCPYRQGVCCADRRHCCPAGFRCAARGTKCLRREAPRWDAPLRDPALRQLL
Kd: ~3 nM
